Data from US10913773B2, “Bicyclic peptidyl inhibitor of tumor necrosis factor-alpha” (Ohio State Innovation Foundation, priority 2016, dated 2021).
Like-named read-outs stand apart in the source and are kept apart here. Positions of bridges follow the written chain, without caps; N, C: chain ends. Non-standard residues stand in square brackets, D forms with d. Primed or numbered codes have the meaning given here. *: point of attachment. FITC = O=C1OC2(c3ccc(O)cc3Oc3cc(O)ccc32)c2ccc(NC(=S)*)cc21; FITC″ = Lys(FITC) = N6-fluorescein-thiocarbamoyl-L-lysine; trimesoyl″ = benzene-1,3,5-tricarbonyl scaffold; FITC′ = fluorescein isothiocyanate, on Lys NZ; trimesoyl = benzene-1,3,5-tricarbonyl; Nle = CCCC[C@H](N)C(=O)O; Dap = NC[C@H](N)C(=O)O; Sar = CNCC(=O)O

Assays:
[1] = molecular target: T1, Recombinant TNFα containing an N-terminal 13-aa ybbR tag (human, UniProt P01375 77-233, biotin at the ybbR tag in the ELISA assays); test: FA, FITC-peptide + TNFα titration
T1 construct: Expressed in E. coli; Same construct used unlabelled (FA) and biotinylated on NeutrAvidin (ELISA); also called tumor necrosis factor-alpha; human TNFα; not shown: N-terminal 13-aa ybbR tag
Method: (§1) The FA values were measured on a Molecular Devices Spectramax M5 spectrofluorimeter, with excitation and emission wavelengths at 485 and 525 nm, respectively. Equilibrium dissociation constants (KD) were determined by plotting the FA values as a function of TNFα concentration and fitting the data to the following equation $$Y = \frac{\left(Amin + \left(Amax \times \frac{Q_b}{Q_f} - Amin\right)\left(\frac{(L+x+K_d) - \sqrt{((L+x+K_d)^2 - 4Lx)}}{2L}\right)\right)}{\left(1 + \left(\frac{Q_b}{Q_f} - 1\right)\left(\frac{(L+x+K_d) - \sqrt{((L+x+K_d)^2 - 4Lx)}}{2L}\right)\right)}$$
(§2) where Y is the measured anisotropy at a given TNFα concentration x; L is the bicyclic peptide concentration; Qb/Qf is the correction fact for dye-protein interaction; Amax is the maximum anisotropy when all the peptides are bound to TNFα, while $Amin$ is the minimum anisotropy. […] The FA values were plotted against the competitor peptide concentration to determine the IC$50$ values.

[2] = molecular target: T1, Recombinant TNFα containing an …; test: FA, FITC-peptide + TNFα titration; remark: listed apart in the source
Method: as §1, §2

[3] = molecular target: T1, Recombinant TNFα containing an …; test: FA
Method: as §1, §2

T1 sequence (P01375 77-233): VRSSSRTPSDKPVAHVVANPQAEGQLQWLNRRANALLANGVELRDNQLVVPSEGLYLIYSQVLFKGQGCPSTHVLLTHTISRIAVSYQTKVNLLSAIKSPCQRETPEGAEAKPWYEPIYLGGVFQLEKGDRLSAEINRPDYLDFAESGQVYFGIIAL

Binder | Kd [2] [nM] | fold decrease in TNFα binding against C1 (Phg at position-1) [3] [fold] | also measured
[Nle]Y[dS]KY[dF]G[dK]H[Dap]K(FITC′)-NH2 (bridge N-4-10 via trimesoyl″; not fully specified (N-terminus)) [C1-11] | 1500 | – | Kd [1]: 1500 nM; fold reduction in affinity against D-Ala at position-3 [3]: ~2 fold
[Nle]Y[dA]KY[dF]G[dK]H[Dap]K(FITC)-NH2 (linker N-4-10 via trimesoyl″) [C1-5] | 850 | – | fold better binding against C1 [3]: ~2 fold
[Nle]Y[dS]KW[dH]S[dK]H[Dap]K(FITC)-NH2 (linker N-4-10 via trimesoyl″) [C1-45] | 420 | – | fold effect on affinity against Gly-7 [3]: 2 fold
[Nle]Y[dS]KW[dH]G[dK]F[Dap]K(FITC)-NH2 (linker N-4-10 via trimesoyl″) [C1-50] | 7500 | – | fold reduction in affinity against His at position-9 [3]: ~30 fold
[Nle]Y[dS]KW[dH]V[dK]H[Dap]K(FITC)-NH2 (linker N-4-10 via trimesoyl″) [C1-46] | 880 | – | fold loss of binding against Gly-7 [3]: 3 to 6 fold
[Nle]Y[dS]KY[dH]G[dK]H[Dap]K(FITC)-NH2 (linker N-4-10 via trimesoyl″) [C1-30] | 760 | – | Kd [1]: 760 nM; fold improvement in affinity against D-Phe at position-6 [3]: ~2 fold
[Nle]Y[dS]KW[dH]L[dK]H[Dap]K(FITC)-NH2 (linker N-4-10 via trimesoyl″) [C1-47] | 1700 | – | fold loss of binding against Gly-7 [3]: 3 to 6 fold
[Nle]Y[dS]KY[dH]A[dK]H[Dap]K(FITC)-NH2 (linker N-4-10 via trimesoyl″) [C1-44] | 320 | – | fold effect on affinity against Gly-7 [3]: 2 fold
GY[dA]KY[dF]G[dK]H[Dap]K(FITC′)-NH2 (bridge N-4-10 via trimesoyl″; not fully specified (N-terminus)) [C1-1] | 7100 | ≥ 5 | –
TY[dA]KY[dF]G[dK]H[Dap]K(FITC″)-NH2 (linker N-4-10 via trimesoyl) [C1-7] | 7200 | ≥ 5 | –
NY[dA]KY[dF]G[dK]H[Dap]K(FITC″)-NH2 (linker N-4-10 via trimesoyl) [C1-9] | 7900 | ≥ 5 | –
DY[dA]KY[dF]G[dK]H[Dap]K(FITC″)-NH2 (linker N-4-10 via trimesoyl) [C1-8] | 7000 | ≥ 5 | –
SY[dA]KY[dF]G[dK]H[Dap]K(FITC)-NH2 (linker N-4-10 via trimesoyl″) [C1-6] | 6200 | ≥ 5 | –
[Nle]Y[dS]KY[dH][Sar][dK]H[Dap]K(FITC)-NH2 (linker N-4-10 via trimesoyl″) [C1-43] | 330 | – | fold effect on affinity against Gly-7 [3]: 2 fold
